# In paper PMC4775073:
# Target: FLAG-CTRwt (full-length) (human) (UniProt P30988)
# Experiment: proximity ligation; in situ PLA (Duolink) on fixed PC cells (PC-3CTRwt, PC-3CTR∆ESS, LNCaP) with anti-ZO-1 and anti-CTR sera; with/without 50 nM CT for 30 seconds; dots per cell counted
# Sequence of UniProt P30988 (P30988 25-474): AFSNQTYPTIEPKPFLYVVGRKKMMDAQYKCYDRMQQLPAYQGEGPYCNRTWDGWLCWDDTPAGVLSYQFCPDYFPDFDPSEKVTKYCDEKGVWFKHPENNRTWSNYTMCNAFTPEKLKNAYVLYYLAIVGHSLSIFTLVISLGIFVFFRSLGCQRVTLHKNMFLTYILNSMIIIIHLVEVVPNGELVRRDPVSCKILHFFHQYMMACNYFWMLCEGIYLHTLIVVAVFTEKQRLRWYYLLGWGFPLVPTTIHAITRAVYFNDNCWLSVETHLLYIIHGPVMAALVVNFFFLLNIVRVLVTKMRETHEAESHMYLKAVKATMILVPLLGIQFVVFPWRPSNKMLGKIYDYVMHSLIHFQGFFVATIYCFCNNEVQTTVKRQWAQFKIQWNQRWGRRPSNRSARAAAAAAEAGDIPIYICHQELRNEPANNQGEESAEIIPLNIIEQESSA
substance,measurement,value
"Zonula Occludens-1 (ZO-1), endogenous (from UniProt Q07157 1-1748) (natural protein)",fold increase of PLA interactions with 50 nM CT (30 seconds) over no exogenous CT,80 fold
